Source: publication PMC5159498, “IQGAP1 Interaction with RHO Family Proteins Revisited” (The Journal of Biological Chemistry, 2016)

Assays:
Experiment in all cases: fluorescence polarisation; IQGAP1 variant titrated to mGppNHp-bound RHO protein (1 μM); equilibrium Kd (eKd), quadratic fit; 30 mM Tris/HCl pH 7.5, 150 mM NaCl, 5 mM MgCl2, 3 mM DTT, 25 °C
Conditions in all cases: both partners purified
[1] = target: T1, IQGAP1 GRD1-RGCT wild type (aa 877-1558) (human, UniProt P46940 877-1558)
T1 construct: human IQGAP1, GRD and RGCT domains, lacks the last 99 amino acids, aa 877-1558; also called GRD1-RGCT^WT; IQGAP1^877-1558
T1 sequence (looked up): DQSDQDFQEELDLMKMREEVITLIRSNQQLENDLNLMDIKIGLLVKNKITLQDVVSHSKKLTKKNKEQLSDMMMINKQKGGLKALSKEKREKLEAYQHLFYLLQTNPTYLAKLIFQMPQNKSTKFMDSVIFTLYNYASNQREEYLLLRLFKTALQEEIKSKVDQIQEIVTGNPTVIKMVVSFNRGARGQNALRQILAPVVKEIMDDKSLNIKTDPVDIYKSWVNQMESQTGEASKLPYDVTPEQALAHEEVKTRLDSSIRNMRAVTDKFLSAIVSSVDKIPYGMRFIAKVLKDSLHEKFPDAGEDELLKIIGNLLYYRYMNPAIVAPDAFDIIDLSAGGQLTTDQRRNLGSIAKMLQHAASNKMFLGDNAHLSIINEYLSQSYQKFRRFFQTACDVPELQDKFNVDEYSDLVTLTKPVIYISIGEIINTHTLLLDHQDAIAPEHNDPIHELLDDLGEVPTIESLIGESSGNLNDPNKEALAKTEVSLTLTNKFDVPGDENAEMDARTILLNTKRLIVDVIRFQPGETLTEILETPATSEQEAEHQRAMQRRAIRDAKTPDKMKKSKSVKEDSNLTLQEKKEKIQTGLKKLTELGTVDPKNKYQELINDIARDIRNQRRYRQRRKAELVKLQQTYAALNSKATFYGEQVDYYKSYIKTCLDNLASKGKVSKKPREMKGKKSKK

[2] = target: T2, IQGAP1 GRD1-RGCT S1441E (aa 877-1558) (human, UniProt P46940 877-1558, S1441E)
T2 construct: human IQGAP1 aa 877-1558 with the phosphomimetic mutation S1441E, from the vector pET46 EkLIC; source: E. coli (pLysS BL21(DE3), CodonPlusRIL or BL21(Rosetta)), purified (Ni-NTA, gel filtration)
T2 sequence (looked up): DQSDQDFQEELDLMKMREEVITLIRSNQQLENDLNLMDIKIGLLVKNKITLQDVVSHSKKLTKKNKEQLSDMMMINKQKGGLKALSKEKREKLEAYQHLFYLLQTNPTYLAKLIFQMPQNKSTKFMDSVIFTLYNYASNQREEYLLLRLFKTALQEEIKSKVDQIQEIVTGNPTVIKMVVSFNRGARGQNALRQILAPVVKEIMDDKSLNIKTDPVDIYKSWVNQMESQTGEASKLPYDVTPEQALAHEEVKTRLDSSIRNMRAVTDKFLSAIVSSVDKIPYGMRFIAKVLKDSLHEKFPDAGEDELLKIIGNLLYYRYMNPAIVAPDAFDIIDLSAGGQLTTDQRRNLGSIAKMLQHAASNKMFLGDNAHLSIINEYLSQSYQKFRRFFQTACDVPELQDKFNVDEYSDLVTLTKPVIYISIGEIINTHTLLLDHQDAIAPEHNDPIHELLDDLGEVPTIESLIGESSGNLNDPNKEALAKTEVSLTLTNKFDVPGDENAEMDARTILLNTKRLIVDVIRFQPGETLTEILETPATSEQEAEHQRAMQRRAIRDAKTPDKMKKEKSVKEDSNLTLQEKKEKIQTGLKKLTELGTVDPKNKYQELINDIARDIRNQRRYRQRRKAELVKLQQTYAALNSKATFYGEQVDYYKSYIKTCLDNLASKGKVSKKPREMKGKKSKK

[3] = target: T3, IQGAP1 GRD1-RGCT S1443E (aa 877-1558) (human, UniProt P46940 877-1558, S1443E)
T3 construct: human IQGAP1 aa 877-1558 with the phosphomimetic mutation S1443E (printed as S1143E in the methods, S1443E everywhere else), from the vector pET46 EkLIC; source: E. coli (pLysS BL21(DE3), CodonPlusRIL or BL21(Rosetta)), purified (Ni-NTA, gel filtration)
T3 sequence (looked up): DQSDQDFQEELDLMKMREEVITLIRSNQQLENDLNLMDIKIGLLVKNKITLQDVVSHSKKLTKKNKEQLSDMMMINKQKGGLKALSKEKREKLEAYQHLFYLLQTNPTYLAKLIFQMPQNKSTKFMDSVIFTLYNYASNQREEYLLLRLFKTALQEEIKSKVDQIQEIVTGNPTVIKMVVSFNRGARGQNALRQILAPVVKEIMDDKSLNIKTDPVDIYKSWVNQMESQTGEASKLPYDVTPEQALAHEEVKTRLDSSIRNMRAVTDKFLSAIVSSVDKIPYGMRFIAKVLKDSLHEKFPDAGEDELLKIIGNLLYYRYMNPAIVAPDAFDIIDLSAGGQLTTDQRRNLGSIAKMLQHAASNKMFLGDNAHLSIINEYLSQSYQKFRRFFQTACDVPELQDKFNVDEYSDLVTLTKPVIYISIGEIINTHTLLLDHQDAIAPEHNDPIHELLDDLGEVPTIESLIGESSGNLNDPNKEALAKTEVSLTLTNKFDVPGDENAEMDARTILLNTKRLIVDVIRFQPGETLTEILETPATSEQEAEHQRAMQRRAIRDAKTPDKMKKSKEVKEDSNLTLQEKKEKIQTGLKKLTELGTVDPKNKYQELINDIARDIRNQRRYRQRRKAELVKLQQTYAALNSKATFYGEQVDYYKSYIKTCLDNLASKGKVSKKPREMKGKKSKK

Kd [1]: 4.6 µM | Kd [2]: 3.6 µM | Kd [3]: 16.3 µM
B1: CDC42 (aa 1-178) (domain or fragment)
chain: not shown
notes: human CDC42, C-terminally truncated, aa 1-178; Loaded non-covalently with mGppNHp, tGppNHp, mGDP or non-fluorescent GppNHp; the nucleotide is named in the format of each assay; also called CDC42^WT; CDC42-mGppNHp
